Assay [1] has as its target T1, PDL1 on A-375 melanoma cells, HCT-15 colorectal cancer cells and A549 lung cancer cells (UniProt Q9NZQ7 19-290, limits assumed).
T1 construct: whole, on cells
Description: flow cytometry, A549 cells, MFI [panel B]. In a few lines:
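Cells were blocked with goat serum at 4° C for 30 min, then incubated with serially diluted bispecific antibodies or hIgG1LALA control at 4° C for 30 min. Bound antibody was detected with Alexa-647 anti-human IgG (4° C, 30 min, dark) and read by flow cytometry.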
Background: In flow cytometry, cells or beads pass a laser one at a time.

Assay [2] concerns the target T2, PDL1 protein (UniProt Q9NZQ7 19-238).
T2 construct: Bought recombinant protein
The assay is described as follows: ELISA, coated PDL1 protein, OD450 [panel B]. The protocol:
(3) PDL1 protein (purchased from Acro) was diluted to 2 μg/ml with PBS buffer, added to a 96-well plate at a volume of 100 μL/well, and placed at 4° C. overnight. The PBS buffer in the 96-well plate was aspirated, and the plate was washed 6 times with PBST (pH 7.2 PBS containing 0.10% Tween 20) buffer. Then, PBS/10% BSA was added at 200 μL/well and incubated at 37° C. for 2 h for blocking. The blocking solution was removed, and the plate was washed six times with PBST. Then, the to-be-tested bispecific antibodies serially diluted with PBST/0.05% BSA, Cross3×PDL1, Cross303×PDL1, Cross307×PDL1, Cross308×PDL1, Cross309×PDL1, Cross310×PDL1, Cross311×PDL1, Cross312×PDL1, Cross313×PDL1, Cross314×PDL1, Cross316×PDL1, Cross317×PDL1, Cross318×PDL1, Cross323×PDL1, Cross325×PDL1, Cross326×PDL1, and control IgG1LALA (purchased from Bio-Tech) were added at 100 μL/well, and incubated at 37° C. for 1 h. The reaction system was removed, and the plate was washed 6 times with PBST. Then, the cells were incubated at 37° C. for 1 h with HRP (horseradish peroxidase)-labeled anti-human secondary antibody (Fab specific) (purchased from Sigma) serially diluted with PBST/0.05% BSA at 100 μL/well. After the plate was washed six times with PBST, TMB (tetramethylbenzidine) was added at 80 μL/well and incubated at room temperature for 3 min. 4 M sulfuric acid was added at 80 μL/well to terminate the reaction. The absorbance was read at 450 nm using a microplate reader.
On the technique in general: In an ELISA, binding on a coated surface is turned into a signal by an enzyme label.

The target of assay [3] is T3, CD3E&D protein (UniProt P04234 22-105).
T3 construct: Purchased from Acro; also called CD3 E&D antigens; CD3E&D antigen protein
The assay is described as follows: ELISA, coated CD3E&D protein, OD450 [panel B]. An excerpt:
In this example, the binding properties of the CD3×Trop2 and CD3×PDL1 bispecific antibody (the production method and the amino acid sequences of the heavy and light chains were shown in Example 1) were detected by using ELISA. The CD3E&D, Trop2, or PDL1 protein was coated onto 96-well plates by inventors, and the strength of the signal after the addition of the antibody was used to determine the binding properties of the antibody and the corresponding protein.
(1) CD3E&D protein (purchased from Acro) was diluted to 2 μg/ml with PBS buffer, added to a 96-well plate at a volume of 100 μL/well, and placed at 4° C. overnight. The PBS buffer in the 96-well plate was aspirated, and the plate was washed 6 times with PBST (pH 7.2 PBS containing 0.1% Tween 20) buffer. Then, 200 μL/well PBS/10% BSA was added and incubated at 37° C. for 2 h for blocking. The blocking solution was removed, and the plate was washed 6 times with PBST. Then, the to-be-tested bispecific antibodies serially diluted with PBST/0.05% BSA, Cross3×Trop2, Cross303×Trop2, Cross307×Trop2, Cross308×Trop2, Cross309×Trop2, Cross310×Trop2, Cross311×Trop2, Cross312×Trop2, Cross313×Trop2, Cross314×Trop2, Cross316×Trop2, Cross317×Trop2, Cross318×Trop2, Cross323×Trop2, Cross325×Trop2, Cross326×Trop2, Cross3×PDL1, Cross303×PDL1, Cross307×PDL1, Cross308×PDL1, Cross309×PDL1, Cross310×PDL1, Cross311×PDL1, Cross312×PDL1, Cross313×PDL1, Cross314×PDL1, Cross316×PDL1, Cross317×PDL1, Cross318×PDL1, Cross323×PDL1, Cross325×PDL1, Cross326×PDL1, and control IgG1LALA (purchased from Bio-Tech) were added at 100 μL/well, and incubated at 37° C. for 1 h. The reaction system was removed, and the plate was washed 6 times with PBST. Then, the cells were incubated at 37° C. for 1 h with HRP (horseradish peroxidase)-labeled anti-human secondary antibody (Fab specific) (purchased from Sigma) diluted with PBST/0.05% BSA at 100 μL/well. After the plate was washed six times with PBST, 80 μL/well TMB (tetramethylbenzidine) was added and incubated at room temperature for 3 min. […] The absorbance was read at 450 nm using a microplate reader.

Assay [4] addresses T4, CD3 on CD8 T cells (Homo sapiens (Human), UniProt P07766 23-207).
T4 construct: Native CD3 complex on CD8 T cells among PBMCs; also called T cells (PBMCs gated with anti-human CD8 antibody)
Description: flow cytometry, CD8 T cells in PBMCs, binding ratio % [panel A]. As for the experimental part:
(1) PBMCs were diluted to 2×10⁶/ml with PBS and added to a 1.5 ml EP tube at 100 μl/tube, goat serum was added thereto at 10 μl/tube. The cells were blocked at 4° C. for 30 min. The serially diluted bispecific antibodies, Cross3×Trop2, Cross303×Trop2, Cross307×Trop2, Cross308×Trop2, Cross309×Trop2, Cross310×Trop2, Cross311×Trop2, Cross312×Trop2, Cross313×Trop2, Cross314×Trop2, Cross316×Trop2, Cross317×Trop2, Cross318×Trop2, Cross323×Trop2, Cross325×Trop2, Cross326×Trop2, Cross3×PDL1, Cross313×PDL1, Cross316×PDL1, Cross325×PDL1, and control hIgG1LALA (purchased from Bio-Tech) were added and incubated at 4° C. for 30 min. 1 ml of PBS was added to the EP tube, followed by centrifugation at 3500 rpm for 5 min at 4° C. The supernatant was discarded, and the system was washed again with PBS. After centrifugation, the supernatant was discarded, and the cells were resuspended with PBS at 100 μl/tube. 1 μl/tube Alexa-647-labeled goat anti-human IgG secondary antibody (purchased from Jackson lab) and 0.5 μl/tube PerCP-Cy5.5-labeled anti-human CD8 antibody were added and incubated at 4° C. in the dark for 30 min. The cells were washed twice with PBS. After centrifugation, the supernatant was discarded. The cells were resuspended with 200 μl/tube of PBS and assay is performed by flow cytometry.

Here are results for three molecules from patent US20260125472A1 (HEFEI TG IMMUNOPHARMA, published 2026).

What is called EC50 (read off the curve) is the concentration needed to bring the measured effect to its halfway point.

T3 sequence (chain, as listed by the source limits assumed, chain 1 of 2): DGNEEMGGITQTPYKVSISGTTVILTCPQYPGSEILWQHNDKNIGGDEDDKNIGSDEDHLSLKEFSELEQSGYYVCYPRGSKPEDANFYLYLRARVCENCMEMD
T3 sequence (P04234 22-105 limits assumed, chain 2 of 2): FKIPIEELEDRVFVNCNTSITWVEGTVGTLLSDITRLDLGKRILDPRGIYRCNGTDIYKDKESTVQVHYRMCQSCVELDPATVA
T2 sequence (Q9NZQ7 19-238 limits assumed): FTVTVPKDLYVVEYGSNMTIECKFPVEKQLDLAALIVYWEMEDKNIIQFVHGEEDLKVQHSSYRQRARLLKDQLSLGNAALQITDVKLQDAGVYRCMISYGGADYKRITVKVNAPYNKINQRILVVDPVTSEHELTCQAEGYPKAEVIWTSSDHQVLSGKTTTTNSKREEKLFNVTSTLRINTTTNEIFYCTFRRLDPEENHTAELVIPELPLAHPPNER
T1 sequence (Q9NZQ7 19-290 limits assumed): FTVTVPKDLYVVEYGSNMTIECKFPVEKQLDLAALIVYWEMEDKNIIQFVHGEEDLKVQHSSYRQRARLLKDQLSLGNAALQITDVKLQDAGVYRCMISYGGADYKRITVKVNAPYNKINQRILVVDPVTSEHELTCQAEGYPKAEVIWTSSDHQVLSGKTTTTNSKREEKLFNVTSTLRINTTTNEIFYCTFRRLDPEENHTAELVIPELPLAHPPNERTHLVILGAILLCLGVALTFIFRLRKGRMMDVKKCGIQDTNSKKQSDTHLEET
T4 sequence (P07766 23-207 limits assumed): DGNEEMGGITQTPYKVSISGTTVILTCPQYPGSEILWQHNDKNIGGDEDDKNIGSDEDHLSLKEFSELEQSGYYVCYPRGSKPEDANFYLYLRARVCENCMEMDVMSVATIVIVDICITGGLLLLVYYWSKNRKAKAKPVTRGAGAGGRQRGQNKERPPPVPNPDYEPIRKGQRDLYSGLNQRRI

B1: Cross318×PDL1 (bispecific antibody, human IgG1, kappa, L234A L235A)
scFv: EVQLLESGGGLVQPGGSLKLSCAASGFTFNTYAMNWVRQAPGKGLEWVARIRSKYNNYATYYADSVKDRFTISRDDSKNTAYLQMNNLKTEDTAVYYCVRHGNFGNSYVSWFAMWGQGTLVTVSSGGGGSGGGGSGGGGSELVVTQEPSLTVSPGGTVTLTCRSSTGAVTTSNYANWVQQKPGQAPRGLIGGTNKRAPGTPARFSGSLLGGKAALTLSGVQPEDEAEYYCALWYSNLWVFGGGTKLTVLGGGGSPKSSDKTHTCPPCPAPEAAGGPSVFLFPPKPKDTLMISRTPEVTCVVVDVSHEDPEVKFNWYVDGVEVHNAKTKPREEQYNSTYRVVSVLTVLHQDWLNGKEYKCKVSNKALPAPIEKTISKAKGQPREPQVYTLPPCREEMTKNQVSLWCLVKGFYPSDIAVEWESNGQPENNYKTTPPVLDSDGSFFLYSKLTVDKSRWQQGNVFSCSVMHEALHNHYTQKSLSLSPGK
heavy: QVQLVQSGAEVKKPGASVKVSCKASGYSFTGYYMHWVRQAPGQGLEWIGRINPYNGATTYSQNFKDRATMTVDTSISTAYMELSRLRSDDTAVYYCVPTGMGYFLMDYWGQGTLVTVSSASTKGPSVFPLAPSSKSTSGGTAALGCLVKDYFPEPVTVSWNSGALTSGVHTFPAVLQSSGLYSLSSVVTVPSSSLGTQTYICNVNHKPSNTKVDKKVEPKSCDKTHTCPPCPAPEAAGGPSVFLFPPKPKDTLMISRTPEVTCVVVDVSHEDPEVKFNWYVDGVEVHNAKTKPREEQYNSTYRVVSVLTVLHQDWLNGKEYKCKVSNKALPAPIEKTISKAKGQPREPQVCTLPPSREEMTKNQVSLSCAVKGFYPSDIAVEWESNGQPENNYKTTPPVLDSDGSFFLVSKLTVDKSRWQQGNVFSCSVMHEALHNHYTQKSLSLSPGK
light: DIQLTQSPSFLSASVGDRVTITCKASQDVGSAVVWYQQKPGKAPKLLIYWASTRHTGVPSRFSGSGSGTEFTLTISSLQPEDFATYFCQQFTSYPTFGQGTKLEIKRTVAAPSVFIFPPSDEQLKSGTASVVCLLNNFYPREAKVQWKVDNALQSGNSQESVTEQDSKDSTYSLSSTLTLSKADYEKHKVYACEVTHQGLSSPVTKSFNRGEC
In the case of B1, the 50% effective concentration (EC50 (read off the curve)) was ~1 µg/mL in assay [1], ~0.2 µg/mL in assay [2] and ~1 µg/mL in assay [3].

B2: Cross323×PDL1 (bispecific antibody, human IgG1, kappa, L234A L235A)
scFv: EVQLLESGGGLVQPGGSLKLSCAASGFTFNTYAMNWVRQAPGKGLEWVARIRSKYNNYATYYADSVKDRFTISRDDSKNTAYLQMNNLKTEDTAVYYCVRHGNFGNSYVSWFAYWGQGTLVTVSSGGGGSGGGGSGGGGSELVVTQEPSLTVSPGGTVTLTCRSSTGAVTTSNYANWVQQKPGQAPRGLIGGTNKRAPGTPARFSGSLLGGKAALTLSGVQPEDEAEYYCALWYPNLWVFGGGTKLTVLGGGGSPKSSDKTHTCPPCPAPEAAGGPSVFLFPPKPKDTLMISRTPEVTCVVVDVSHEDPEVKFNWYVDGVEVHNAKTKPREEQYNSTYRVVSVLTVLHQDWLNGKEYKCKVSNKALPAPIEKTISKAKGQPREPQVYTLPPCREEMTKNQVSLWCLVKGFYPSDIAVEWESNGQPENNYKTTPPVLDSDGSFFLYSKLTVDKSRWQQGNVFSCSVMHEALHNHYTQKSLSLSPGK
heavy: QVQLVQSGAEVKKPGASVKVSCKASGYSFTGYYMHWVRQAPGQGLEWIGRINPYNGATTYSQNFKDRATMTVDTSISTAYMELSRLRSDDTAVYYCVPTGMGYFLMDYWGQGTLVTVSSASTKGPSVFPLAPSSKSTSGGTAALGCLVKDYFPEPVTVSWNSGALTSGVHTFPAVLQSSGLYSLSSVVTVPSSSLGTQTYICNVNHKPSNTKVDKKVEPKSCDKTHTCPPCPAPEAAGGPSVFLFPPKPKDTLMISRTPEVTCVVVDVSHEDPEVKFNWYVDGVEVHNAKTKPREEQYNSTYRVVSVLTVLHQDWLNGKEYKCKVSNKALPAPIEKTISKAKGQPREPQVCTLPPSREEMTKNQVSLSCAVKGFYPSDIAVEWESNGQPENNYKTTPPVLDSDGSFFLVSKLTVDKSRWQQGNVFSCSVMHEALHNHYTQKSLSLSPGK
light: DIQLTQSPSFLSASVGDRVTITCKASQDVGSAVVWYQQKPGKAPKLLIYWASTRHTGVPSRFSGSGSGTEFTLTISSLQPEDFATYFCQQFTSYPTFGQGTKLEIKRTVAAPSVFIFPPSDEQLKSGTASVVCLLNNFYPREAKVQWKVDNALQSGNSQESVTEQDSKDSTYSLSSTLTLSKADYEKHKVYACEVTHQGLSSPVTKSFNRGEC
Consider B2, for which the results for the “EC50 (read off the curve)” value in assay [2] and in assay [3] were ~0.2 µg/mL and ~1 µg/mL, respectively.

B3: Cross325×PDL1 (bispecific antibody, human IgG1, kappa, L234A L235A)
scFv: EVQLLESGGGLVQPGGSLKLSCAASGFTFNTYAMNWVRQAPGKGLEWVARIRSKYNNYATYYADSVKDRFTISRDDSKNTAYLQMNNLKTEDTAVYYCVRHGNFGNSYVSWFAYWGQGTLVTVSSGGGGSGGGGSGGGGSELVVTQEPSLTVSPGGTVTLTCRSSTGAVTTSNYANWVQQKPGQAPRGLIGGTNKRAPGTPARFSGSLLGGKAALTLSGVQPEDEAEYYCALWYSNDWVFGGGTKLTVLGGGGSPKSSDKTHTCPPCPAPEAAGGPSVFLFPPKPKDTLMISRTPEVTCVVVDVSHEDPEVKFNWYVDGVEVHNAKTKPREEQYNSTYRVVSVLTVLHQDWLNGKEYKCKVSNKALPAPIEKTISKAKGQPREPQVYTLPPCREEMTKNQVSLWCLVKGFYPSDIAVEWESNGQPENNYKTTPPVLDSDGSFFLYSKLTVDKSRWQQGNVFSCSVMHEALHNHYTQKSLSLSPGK
heavy: QVQLVQSGAEVKKPGASVKVSCKASGYSFTGYYMHWVRQAPGQGLEWIGRINPYNGATTYSQNFKDRATMTVDTSISTAYMELSRLRSDDTAVYYCVPTGMGYFLMDYWGQGTLVTVSSASTKGPSVFPLAPSSKSTSGGTAALGCLVKDYFPEPVTVSWNSGALTSGVHTFPAVLQSSGLYSLSSVVTVPSSSLGTQTYICNVNHKPSNTKVDKKVEPKSCDKTHTCPPCPAPEAAGGPSVFLFPPKPKDTLMISRTPEVTCVVVDVSHEDPEVKFNWYVDGVEVHNAKTKPREEQYNSTYRVVSVLTVLHQDWLNGKEYKCKVSNKALPAPIEKTISKAKGQPREPQVCTLPPSREEMTKNQVSLSCAVKGFYPSDIAVEWESNGQPENNYKTTPPVLDSDGSFFLVSKLTVDKSRWQQGNVFSCSVMHEALHNHYTQKSLSLSPGK
light: DIQLTQSPSFLSASVGDRVTITCKASQDVGSAVVWYQQKPGKAPKLLIYWASTRHTGVPSRFSGSGSGTEFTLTISSLQPEDFATYFCQQFTSYPTFGQGTKLEIKRTVAAPSVFIFPPSDEQLKSGTASVVCLLNNFYPREAKVQWKVDNALQSGNSQESVTEQDSKDSTYSLSSTLTLSKADYEKHKVYACEVTHQGLSSPVTKSFNRGEC
For the molecule B3, the concentration giving a half-maximal response (EC50 (read off the curve)) is ~1 µg/mL in assay [1], ~0.1 µg/mL in assay [2], ~0.7 µg/mL in assay [3] and ~0.4 µg/mL in assay [4].
